# Reference: the nanobody polyreactivity screen of Harvey et al. (2022)
# Test: yeast display, Sf9 membrane polyspecificity reagent, FACS + sequencing; frameworks hold sequencing errors
# How it was run: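 Sorting gates, low and high (top ~1%), were placed on anti-HA fluorescence to track expression and on streptavidin fluorescence to track reagent binding. A clone's polyreactivity label is taken from the gate it came out of. The reagent was 10% biotinylated, detergent-solubilized Sf9 membrane, applied for 1 hour at 4 °C to galactose-induced yeast display cells.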
row,Sequence,polyreactivity (PSR sort gate)
1,QVQLVESGGGLVQAGGSLRLSCAASGSTFGVNAMGWYRQAPGKERELVAGISVDDSTTYYADSVKGRFTISRDNAKNTVYLQMNSLIPEDTAVYYCAAEREKTLYYLSRFDYWGQGTQVTVSS,low polyreactivity
2,QVQLVESGGGLVQAGGSLRLSCADSGRIFNPYAMGWYRQAPGKERELVAGISWGGGSTRYADSVKGRFTISRDNAKNTVYLQMNSLKPVDTAVYYCNSGSYYKRFDYWGKGTQVTVSS,high polyreactivity
3,HVQLVESGGGLVQAGGSLRLSCAASGRILRRNAMGWYRQAPGKEREFVAAITWRGGSTYYADSVKGRFTISRDNAKNTVYLQMNSLKPEDTAVYYCAADTYSVEYVLPYYYWGQGTQVTVSS,high polyreactivity
4,QVQLVESGGGLVQAGGSLRLSCAASGRTFVNYTMGWYRQAPGKERELVAAIRYRDGSTYYADSVKGRFTISRDNAKNTVYLQMNSLKPEDTAVYYCDTRITQVGDYIYDYWGQGTQGTVSS,low polyreactivity
5,QVQLVESGGGLVQAGGSLRLSCAASGSTFGYYAMGWYRQAPGKERELVAAITKRSGRTYYADSVKGRFTISRDNAKNTVYLQLNSLKPEDTAVYYCAARYTFDRWKFGYWGQGTQVTVSS,high polyreactivity
6,QVQLVESGGGLVQAGGSLRLSCAASGRIFPFYAMGWYRKAPGKERELVARITLSGGSTYYADSVKGRFTISRDNAKNTVYLQMNSLKPEDTAVYYCAADRTSWSVLDFDYWGQGTQVTVSS,low polyreactivity
7,QVQLVESGGGLVQAGGSLRLSCAASGSTFYFYAMGWYRQAPGKERELVAAITGSGGSTYYADSVKGRFTISRDNAKNTVYLQMNSLKPEDTAVYYCAARFSYWKTKRAYDWGQGTQVTVSS,high polyreactivity
8,QVQLVESGGGLVQAGGSLRLSCAASGNTFANYAMGWYRQAPGKERELVAAITSNGGSTYYADSVKGRFTISRDNAKNTVYLQMNSLKPEDTAVYYCAADAAYYSGYDYWGQGTQVTVSS,low polyreactivity
9,QVQLVESGGGLVQAGGSLRLSCAACGFIFYKNAMGWYRQAPGKERELFAAISGGGGSTSYADSVKGRFTISRDNAKNTVYLQMNSLKPEDTAVYYCATYSFRRTGWRYDYWGQGTQVTVSS,high polyreactivity
10,QVQLVESGGGLVQAGGSLRLSCAASGSTFGRNAMGWYRQAPGKERELVASISSGGSTYYADSVKGRFTISRDNAKNTVYLQMNSLKPEDTAVYYCARRAYQNWYNYWGQGTQVTVSS,high polyreactivity
11,QVQLVETGGGLVQAGGSLRLSCAASGRIFRGNTMGWYRQAPGKERELVAAITIRGRTYYADSVKGRFTISRDNAKNTVYLQMNSLKPEDTAVYYCAVASAGDNDYGGQGTQVTVSS,low polyreactivity
12,QVQLVESGGGLDQAGGSLRLSSAAYGRIFRRYAMGWYRQSHGKERELVAAITSGGGSTYYADSVKGRFTISRDNAKNTVYLQMNSLKPEETAVYYCNKSSLEFVKGKYGYWGQGTQVTVSS,low polyreactivity
13,QVQLVESGGGLVQAGGSLRLSCAASGSIFSPYAMGWYRQAPGKERELVAAIRWGGGCTYADSVKGRFTISRDNAKNTVYLQMNSVIPEDSAVYYCAARRRSLRGYDYWGQGTQVTVSS,high polyreactivity
14,QVQLVESGGGLVQAGGSLRLSCAASGSIFVEYAMGWYRQAPGKERELVSAIRWRGGSTNYADSVKGRFTISRDTAKNTVYLQMNSLNREDTAVYYCNARHPASGDLYRMDYWGQGTQVTVSS,low polyreactivity
15,QVQLVESGGGLVQAGGSLRISCAASGSILTHYAMGWYRQAPGKERELVADINSGGGTSYADSVKGRFTISRDNAKNTVYLQMNSLKPEDTAVYYCAAAWWPYRYPTYYSQFDYWGQGTQVTVSS,low polyreactivity
16,QVQLVESGGGLVQAGGSLRLSCAASGSTFSGYAMGGYRQAPGKERELVAAISSSGGSTSYADSVKGRFTISRDNAKNTVYLQMNSLKPEDTAVYYCAARAKGYAHIRAYDYWGQGTQVTVSS,low polyreactivity
17,QVQLVESGGGLVQAGGSLRLSCAASGFIFYDYAMGWYRQAPGKERELVAAISRGGSSTYYADSVKGRFTISRDNAKNTVYLQMNSLKPEDTAVYYCAAYRWYEYDYWGQGTQVTVSS,high polyreactivity
18,QVQLVESGGGLVQAGGSLRLSCAASGLTFKDNAMGWYRQAPGKERELVAAISKGGGSTFYADSVKGRFTISRDYAKNTVYFQMNSLKPEDTAVYYCNADVGYRGGEEVYWGQGTQVTVSS,low polyreactivity
19,QVQLVESGGGLVQAGGSLRLSCAASGYTFRYYAMGWYRQAPGKERELVAAITGSGGSTYYADSVKGRFTISRDNAKNTVYLQMNSLKPEDTAVYYCNTVTTSYKRSGKFDYWGQGTQVTVSS,high polyreactivity
20,QVQLVESGGGLVQAGGSLRLSCAASGSTFVWYAMGWYRQAPGKEREFVATISWSDGSTYYADSVKGRFTISRDNAKNTVYLQMNSLKPEDTAVYYCASDVDRFFTYKYDYWGQGTQVTVSS,low polyreactivity
21,QVQLVESGGGLVQAGGSLRLSCAASGRIFQYNAMGWYRQAPGKDRELVAAIRRGGGSTYYADSVKGRFTISRDNAKNTVYLQMNSLKPEDTAVYYCAARRKRVSFYPEYDYWGQGTQVTVSS,low polyreactivity
22,QVKLVESGGGLVQAGGSLRISSAASGSTFYYYAMGWYRQAPGKESEFVASISSRGTSKYYADSVKGRFTISRDNAKNTVYLQMNSLKPEDTAVYYCAARGWCPTRAYDYWGQGTQVTVSS,high polyreactivity

row,Sequence,polyreactivity (PSR sort gate)
1,QVQLVESGGGLVQAGGSLRLSCAASGFTFGEYAMGWYRQAPGKEREFVAAISATGGSTYYADSVKGRFTISRDNAKNTVYLQMNSLKPEDTAVYYCAARDAYYDGYDYWGQGTQVTVSS,low polyreactivity
2,QVQLVESGGGLVQAGGRLRLSFAASGFTFRYYAMGWYRQAPGKEREFVAAIRSSGTTTSYADSVKGRFTISRDNAKNTVYLHMKSLKPEDTAVYYCAKVSSSSYVEHRYGYWGQGTQVTVSS,high polyreactivity
3,QVQLVDSGGGLVQAGGSLRLSCAASGSIFVTYAMGWSRQAPAKERELVAAITDRGGSTYADSVKGRFTISRDNAKNTVYLQMNSLKPEDTAVYYCAADPDLGDAYDYWGQGTQVTVSS,low polyreactivity
4,QVQLVESGGGLVQAGGSLRLSCAASGSIFLVNAMGWYRQAPGKERELVAAINSGGSTYYADSVKGRFTISRDNAKNTVYLQMNSLKPEDTAVYYCAADFWLKVWQDTDYDYDYWGQGTQVTVSS,low polyreactivity
5,QVQLVESGGGLVQAGGSLRLSCAASGRIFRGYAMGWYRQAPGKERELVAAITKRGGSTYYADSVKGRFTISRDNAKNTVYFQMNSLKPEDTAVYYCAAYLPGWELREYGYWGQGTQVTVSS,high polyreactivity
6,QVQLVESGGGLVQAGGSLRLSCAASGFTLAGYAMGWYRQAPGKERELVSAITTSGGSTFYADSVKGRFTISRDNAKNTDYLKMNSLKPEDTAVYYCAAAIRTRTSYYRFDYWGQGTQVTVSS,high polyreactivity
7,QVQLVESGGGLVQAGGSLRLRCAASGRIRYYGIGCYRQAPGKERELVAAITWRAGRTYYADSVKGRFTISRDNANITVYLHMNSLKPEDSAVYYCAAAIYSRSFRVDYWGQGTQVSVSS,high polyreactivity
8,QVQLVESGGGLVQAGGSLRLSCAASGFTFKAYAMGWYRQAPGKERELVAAITKSGGRTFYADSVKGRFTISRDTAKNTVYFQMNSLKPEDTAVYYCAASYTVYYWGQGTQVTVSS,high polyreactivity
9,QVQLVESGGGLVQAGGSLRLSCAASGITFNGYVMGWYRQAPGKERELVAAITSGARTYYADSVKGRFTISRDNAKNTVYLQMNSLKPEDTAVYYCAASIWLYRYYYWGQVTQVTVSS,high polyreactivity
10,QVQLVESGGGLVQAGASLRLSCAASGFIFNQYAMGWYRQAPGKERELVAGITWRGGRTYYADSVKGRFTISRDNAKNTVYLQMNSLKPEDTAVYYCAADVAHYNGGEYYYWGQGTQVTVSS,high polyreactivity
11,QVQLVESGGGLVQAGGSLRLSCAASGRTFYIYAMGWYRQAPGKERELVAAISTTGGRTYYADSVKGRFTISRDNAKNTVYLQMNSLKPVDTAVYFCAAPARTRYDYWGQGTQVTVSS,high polyreactivity
12,QVQIVESGGGLVQAGGSLRLSCAASGRTLGFYAMGWYRQAPGKEREFVAAISSSVGRTYYADSVKGRFTISRDNAKNTVYLHMNRLKPEDTAVYYCAAKVSAWKKKSEMNYWGQGTQVTVSS,high polyreactivity
13,QVQLVESGGGLVQAGGSLRLSCAASGSTIADNAMGWYRQAPGKERELVAAITRSGVRTYYADSVKGRFTISRDNAKYTVYLQMNSLKPDDSAVYYCAKRTYPSRIYDYWGQGTQVTVSS,low polyreactivity
14,QVQLVESGGGLVQAGGSLRLSCAASGSIFSYYAMGWYRQATAKERDLVAAISTSCGNTYYADSVKGRFTISRDNPKNRVYVQMNSLKPEDTAVYYCAAENVWAWFYGYDYWGQGTQVTVSS,high polyreactivity
15,QVQLVESGGGLVQAGGSLRLSCAASGIIFWRYAMGWYRQAPGKERELVATITSGGSTDYADSVKGRFTISRDNAKNTVYLQMNSLKPEDTEVYYCAALGYATGYWRYYYWGQGTQVTVSS,low polyreactivity
16,QVQLVESGGGLVQAGGSLRLSCAASGSIFWSNAMGWYRQAPGKERELVAAINQSGTSTYYADSVKGRFTISRDNAKNTVYLQMNSLKTEDTAVYYCAADQVGWTYDYWGQGTQVSVSS,low polyreactivity
17,QVQLVESGGGLVQAGGSLRLSCAASGFIFGYYAMGWYRQAPRKERELVAAISQSTGSTYYADSVKGRFSNSRDNAKNTVYLQMNSLKPEDTAVYYCNAEGPEVTTWGYVYWDWGYGYWGQGTQVTVSS,low polyreactivity
18,QVQLVESGGGLVQAGGSLRLSCAASGITFRFYAMGWYRQAPGKERELVAAITSSGGSTYYADSVKGRFTISRDNAKNTVYLQMNSLKPEDTAVYYCAASYGAPYGYKRYYYWGQGTQVTVSS,high polyreactivity
19,QVQLVESGGGLVQAGGSLRLSCAASGRIFPKYAMGWYRQAPGKERELVARISVRGGRTYYADSVKGRFTISRDNAKNTVYLQMNSLKPEDTAVYYCAAYTRPAYDYWGQGTQVTVSS,high polyreactivity
20,QVQLVESGGGLVQAGGSLRLSCAASGRIFQGYVMGWYRQAPGKERELVAAITTGGSTYYADSVKGRFTISRDNAKNTVYLQMNSLKPEDTAVYYCYAVVYVSGYNPYIFGYWGQGTQVTVSS,low polyreactivity
21,QVQLVESGGGLVQAGGSLRLSCAASGRIFGVNAMGWYRQAPGKERELVAAITRRGGSTYADSVKGRFTISRDNAKNTVYLQMNSLKPEDTAVYYCNAESYYGIFRYKYDYWGQGTQVTVSS,high polyreactivity
